The labels stand for the following.
B1: glmS ribozyme (parent)
chain: AUAAAAGCGCCAGAACUACAGAAAUGUAGUUGACGAGGAGGAGGUUUAUCGAAUUUUCGGCGGAUGCCUCCAAA

± gives the standard error. Fewer inactive variants are shown than the library holds. Bounds are passed on as bounds.

Common to all, as to details: with glucosamine-6-phosphate
In data set [1] the parent is B1. Briefly: self-cleavage kobs at 160 uM GlcN6P; higher = faster cleavage; RNA array. The essentials:
(§1)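 Barcoded ribozyme variants were transcribed in situ on sequenced MiSeq chips by E. coli RNA polymerase. At 37 °C, a hybridised Cy3 probe tracked them while glucosamine-6-phosphate (40 μM to 10 mM) in HEPES/KCl/Mg(OAc)2 buffer flowed in and tiles were imaged over ~14 h. Per-tile medians of signals normalised to baseline and to non-cleaving reference variants were fit to one- or two-exponential decays, giving kobs. kcat and KM came from weighted Michaelis–Menten fits across concentrations.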

Data set [2] covers variants of B1. Kind of data set: self-cleavage kobs at 640 uM GlcN6P; higher = faster cleavage; RNA array. The essentials: as §1
In data set [3] the parent is B1. Briefly: self-cleavage kobs at 2500 uM GlcN6P; higher = faster cleavage; RNA array. In a few lines: as §1
In data set [4] the parent is B1. Kind of data set: self-cleavage kobs at 10000 uM GlcN6P; higher = faster cleavage; RNA array. The essentials: as §1

Turning to AUAAAAGCGCCAGAGCUACAGAAAUGUAGUUGACGAGGAGGAGGUUCAUCGAAUUUUCGGCGAAUGCCUCCAAA [A15G U47C G63A], the “self-cleavage kobs at 160 uM GlcN6P” value in data set [1] was less than 1e-05 s⁻¹. Also, the “self-cleavage kobs at 640 uM GlcN6P” value in data set [2] is less than 1e-05 s⁻¹. The “self-cleavage kobs at 2500 uM GlcN6P” value in data set [3] was less than 1e-05 s⁻¹.

In the case of AUAAAAGCGCCAGAACUACAGAAAUGUAGUUCACGAGGAGGAGGUUUAUCAAAUUUUCGGGGGAUGCCUCCAAA [G32C G51A C61G], the “self-cleavage kobs at 160 uM GlcN6P” value in data set [1] is less than 1e-05 s⁻¹.

Take AUAAAAGUGACAGAACUACAGAAAUGUAGUUGACGAGGAGGAGGUUUAUCGAAUUUUCGGCAGAUGCCUCCAAA [C8U C10A G62A]: the “self-cleavage kobs at 160 uM GlcN6P” value in data set [1] is less than 1e-05 s⁻¹. For the same variant, the “self-cleavage kobs at 640 uM GlcN6P” value in data set [2] was less than 1e-05 s⁻¹.

Take AUAAAAGCGCCAGAACUACAGAAAUGUAGUGGACAAGGAGGAGGUUUAUCGAAUUUUCGGCGGAUGCCUCCAAA [U31G G35A]: the “self-cleavage kobs at 160 uM GlcN6P” value in data set [1] is less than 1e-05 s⁻¹. Moreover, the “self-cleavage kobs at 640 uM GlcN6P” value in data set [2] was less than 1e-05 s⁻¹. Also, the “self-cleavage kobs at 10000 uM GlcN6P” value in data set [4] was less than 1e-05 s⁻¹.

Take AUAAAAGCGCCAGAACUACAGAAAUGUAGUUGAGGAGGAGGAGGUUUAUCGAGUUUUCGGCGGAUGCGUCCAAA [C34G A53G C68G]: in data set [1], the “self-cleavage kobs at 160 uM GlcN6P” value was determined as 0.000101 ± 2.4e-05 s⁻¹. In addition, the “self-cleavage kobs at 640 uM GlcN6P” value in data set [2] stood at 0.000115 ± 2.5e-05 s⁻¹. For the same variant, the “self-cleavage kobs at 2500 uM GlcN6P” value in data set [3] worked out at 8.44e-05 ± 3.6e-05 s⁻¹.

Consider AUAAAAGCGCCAGAACUACAGAAAUGUAGUUGACGUGGAGGAGGUUUAUCGAAUUUUCGACGGAUGCCUCCAAA [A36U G60A], for which the “self-cleavage kobs at 160 uM GlcN6P” value in data set [1] was less than 1e-05 s⁻¹. Also, the “self-cleavage kobs at 2500 uM GlcN6P” value in data set [3] is less than 1e-05 s⁻¹. In data set [4], the “self-cleavage kobs at 10000 uM GlcN6P” value is less than 1e-05 s⁻¹.

As for AUAAAAGCGCCAGAACUACAGAAAUUUAGUUGACGAGGAGGAGGUUUAUGGAAUUUUCGGCGGAUGCUUCCAAA [G26U C50G C68U], the “self-cleavage kobs at 160 uM GlcN6P” value in data set [1] amounted to 0.000155 ± 5.5e-05 s⁻¹.

AUAAAAACGCCAGAACUACAGAAAUGUAGUUGACGAGGAGAAGGUUUAUCGAAUUUUCGGCGGAUGCCUGCAAA [G7A G41A C70G]: the “self-cleavage kobs at 160 uM GlcN6P” value in data set [1] is less than 1e-05 s⁻¹.

AUAAAAGCGCCAGAACUACAGAAAUGUAGUUGACUUUGAGGAGGUUUAUCGAAUUUUCGGCGGAUUCCUCCAAA [G35U A36U G37U G66U]: the “self-cleavage kobs at 160 uM GlcN6P” value in data set [1] was less than 1e-05 s⁻¹.

As to AUAAAAGCGCCAGAACUACAGAAAUGUAGUUGACGAGGAGGAGGUUUAUCCAAUUUUCUGCGGAUGCCUCUAAA [G51C G59U C71U], in data set [1], the “self-cleavage kobs at 160 uM GlcN6P” value was less than 1e-05 s⁻¹. Moreover, the “self-cleavage kobs at 2500 uM GlcN6P” value in data set [3] is less than 1e-05 s⁻¹.

For the variant AUAAAAACGCCAGAACUACAGAAAUGUAGUUGACGAAGGUGAGGUUUAACGAAUUUUCAGCGGAUGCCUCCAAA [G7A G37A A39G G40U U49A G59A], the “self-cleavage kobs at 160 uM GlcN6P” value in data set [1] was less than 1e-05 s⁻¹. Further, the “self-cleavage kobs at 2500 uM GlcN6P” value in data set [3] was less than 1e-05 s⁻¹.

On to AUAAAAGCGCCAGAACUACAGAAAUGUAGUUGACGAGGCGGAGGUUUAUGGAAUUUUCGGCGGAUGCCUCCAAA [A39C C50G], for which the “self-cleavage kobs at 160 uM GlcN6P” value in data set [1] is less than 1e-05 s⁻¹. Besides, the “self-cleavage kobs at 640 uM GlcN6P” value in data set [2] is less than 1e-05 s⁻¹.

Take AUAAAAGCGCCAGAACUACAGAAAUGUAGUUGACGAGGAGGAUGUUUAUCGAAUUUUCGGCGGAUUUCUCCAAA [G43U G66U C67U]: in data set [1], the “self-cleavage kobs at 160 uM GlcN6P” value is less than 1e-05 s⁻¹.

As to AUAAAAGCGCCAGAACUACAGAAAUGUAGUUGACGAGGAGGAGGGUUAUGGAAUUUUCGGCGGAUGCCUCUAAA [U45G C50G C71U], in data set [1], the “self-cleavage kobs at 160 uM GlcN6P” value was less than 1e-05 s⁻¹.

As for AUAAAAGCGCCUGAACUACAGAAAUGUAGUUGACUAGGAGGAGGUUUAUCGAAUGUUCGGCGGAUGCCUCCAAA [A12U G35U U55G], the “self-cleavage kobs at 160 uM GlcN6P” value in data set [1] was less than 1e-05 s⁻¹.

For the variant AUAAAUGCGCCAGCACUACAGAAAUGUAGUUGACGAGGAGGAGGUUUAUCGAAUUUUCGGCGGAUGCCUCCAAA [A6U A14C], the “self-cleavage kobs at 160 uM GlcN6P” value in data set [1] was less than 1e-05 s⁻¹. Further, the “self-cleavage kobs at 10000 uM GlcN6P” value in data set [4] was 4.13e-05 ± 7.6e-06 s⁻¹.

As for AUAAAAGCGCCAGAACUACAGAAAUGUAGUUGACGAGGAGGAUGUUUAUCGAAUUUUCGGCUGAUGUCUCCAAA [G43U G62U C67U], the “self-cleavage kobs at 160 uM GlcN6P” value in data set [1] was less than 1e-05 s⁻¹. Besides, the “self-cleavage kobs at 640 uM GlcN6P” value in data set [2] was less than 1e-05 s⁻¹.

For AUAAAAGCGCCAGAACUACAGAAAUGUAGUUGAUGAGGAGGAGGUUUAUCGAAUUUUCGGCGGAUGCCUUCAAA [C34U C70U], the “self-cleavage kobs at 160 uM GlcN6P” value in data set [1] was less than 1e-05 s⁻¹. Further, in data set [2], the “self-cleavage kobs at 640 uM GlcN6P” value was less than 1e-05 s⁻¹.

As to AUAAAAGCACCAGAACUACAGAAAUGUAGUUGACGAGGAGAAGGUUUAUCGAAUUUUCGGCGGAUGCCUCCAAA [G9A G41A], the “self-cleavage kobs at 160 uM GlcN6P” value in data set [1] was less than 1e-05 s⁻¹. In addition, the “self-cleavage kobs at 640 uM GlcN6P” value in data set [2] is less than 1e-05 s⁻¹. For the same variant, the “self-cleavage kobs at 2500 uM GlcN6P” value in data set [3] was less than 1e-05 s⁻¹. The “self-cleavage kobs at 10000 uM GlcN6P” value in data set [4] is less than 1e-05 s⁻¹.

Source of the values: the supplement of paper PMC7125110.
